Experimental data reported in the supplement of paper PMC9170038.

System: MS2 coat protein
Assay: apparent KD of MS2 coat protein; designed switch direction (-1 OFF switch, 1 ON switch): 1; higher = weaker reporter binding
Procedure, shortened: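 RNA switches sharing common flanks were transcribed by stalled E. coli RNA polymerase on Illumina chips. A doubling series of SNAP-549-labelled MS2 coat protein, from 0.7 or 1.5 nM to 3 µM, was applied in Tris-HCl pH 7.5 buffer with KCl, MgCl2, BSA, DTT, tRNA and Tween-20. Each step lasted 0.8–1.5 h at the bottom of the series and 10–20 min at the top. Normalised cluster fluorescence was curve-fitted, giving apparent KD as the per-design median over clusters.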

[1] = Eterna round: R95, input ligand: FMN 200 uM
[2] = Eterna round: R95, input ligand: microRNA oligo, concentration not stated
[3] = Eterna round: R95, input ligand: none
[4] = input ligand: microRNA oligo, concentration not stated

Row | Sequence | apparent KD of MS2 coat protein [1] | apparent KD of MS2 coat protein [2] | apparent KD of MS2 coat protein [3] | apparent KD of MS2 coat protein (input ligand: FMN 200 uM) | apparent KD of MS2 coat protein [4] | apparent KD of MS2 coat protein (input ligand: none)
1 | AGCUUACAUGAGGAUCACCCAUGUAGGAAGUACAUAGGAUAUCACCAAAUGGUCGACAUGUGAGAAGGGUGGAAGU [Usarle] (puzzle: Same State 1) | 16.2 nM | 19.4 nM | 13.5 nM |  |  | 
2 | AGCUUUUAAUUAGGAUAUGGUCACAUGAGGAUCACCCAUGUAACGAUGAUACGAUGUGGUCAAGACUAGAAGGGAUCGCUAACA [SameState NG2 #70] (Eterna round: R96, puzzle: Same State NG 2) |  |  |  | 150 nM | 82.9 nM | 113 nM
3 | AGGAAGGAGACUGAGGAUAUCGUUGAGAGGACAUGAGGAUCACCCAUGUGUAUAGGAUUGGAGAACGAGAAGGCAGAGGAGUGGA [JR_SS2_Sub046] (puzzle: Same State 2) | 50 nM | 48.5 nM | 72.4 nM |  |  | 
4 | AGGCAAGCUUUUUGCUUGUAUGCAGGAGAACAUGAGGAUCACCCAUGUCUUGGAGGUGUUGAAAAUAAGAGAAUGCA [JR_SHM208A_Sub006] (puzzle: Sensor for hsa-mir-208a) | 63.9 nM | 72.8 nM | 93.9 nM |  |  | 
5 | AGGCCACCGGGAGGAUAUGGCACCUAUAUGGUGCCAGAAGGCUCAACAUGAGGAUCACCCAUGUGGGUGGGUUCUAAUGAACAA [Fiskers NG1 - 1] (Eterna round: R96, puzzle: Same State NG 1) |  |  |  | 69.1 nM | 41.7 nM | 46.7 nM
6 | AGGCUCAGAGCAGGAUAUAUGCGAUCACAUGAGGAUCACCCAUGUCUCGAGCUUCGGCUCGAGGCAUAGAAGGGCUCUGAGCCA [SSNG2/4-B1] (Eterna round: R96, puzzle: Same State NG 2) |  |  |  | 18.9 nM | 28.6 nM | 51.8 nM
7 | AGGGAGGAAGCUGAGGAUAUCGUAAGGAGGACAUGAGGAUCACCCAUGUGUGUGGAAUUGGAGGACGAGAAGGCAGAGGAGUGGG [JR_SS2_Sub054] (Eterna round: R96, puzzle: Same State 2) |  |  |  | 40.5 nM | 35 nM | 38.4 nM
8 | AGGGAGGAAGCUGAGGAUAUCGUAAGGAGGACAUGAGGAUCACCCAUGUGUGUGGAAUUGGAGGACGAGAAGGCAGAGGAGUGGG [JR_SS2_Sub054] (puzzle: Same State 2) | 32.9 nM | 27.1 nM | 28.9 nM |  |  | 
9 | AGGUAACAUGAGGAUCACCCAUGUAAGGUGAACGUAGGAUAUCGAGGAGGUAGAGUAGGUCGAGAAGGACGAGAAG [JR_SS1_Sub094] (puzzle: Same State 1) | 139 nM | 100 nM | 127 nM |  |  | 
10 | AGGUAACAUGAGGAUCACCCAUGUACCAAUAAUGCAGGAUAUCGACACGAAAAUACGUGUCGAGAAGGGCAUGAAA [SS1 MT 22] (Eterna round: R96, puzzle: Same State 1) |  |  |  | 10.3 nM | 9.09 nM | 12.5 nM
11 | AGGUACAACGGAGGAUAUAAUAGUCUAUAGACGUUAGAAGGCCGGGCCUUCACAUGAGGAUCACCCAUGUCUCUGGAGGCGCCU [Eternabot solution 11] (Eterna round: R96, puzzle: Same State NG 1) |  |  |  |  | 16.8 nM | 
12 | AGUAGUGUAACAUGAGGAUCACCCAUGUAUGUAUAUGUAACCUAGGAUAUGGAGGUUAUGUUUGACCAGAAGGAGGAUUGUUUA [JR_SSNG3_Sub042] (Eterna round: R96, puzzle: Same State NG 3) |  |  |  | 29.7 nM | 28.7 nM | 33.7 nM
13 | AGUAGUUUAACAUGAGGAUCACCCAUGUAUCUAUCUGUAACCUAGGAUAUGGGCGUUGUAUUUAACCAGAAGGAGGAUCGUUUA [JR_SSNG3_Sub047] (Eterna round: R96, puzzle: Same State NG 3) |  |  |  | 17.8 nM | 22.5 nM | 29 nM
14 | AGUAGUUUAACAUGAGGAUCACCCAUGUAUGUAUAUGUAACCUAGGAUAUGGAGGUUUUAUUUAACCAGAAGGAGGAUUGUUUA [JR_SSNG3_Sub043] (Eterna round: R96, puzzle: Same State NG 3) |  |  |  | 18.3 nM | 15.8 nM | 20.7 nM
15 | AGUAUACAUGAGGAUCACCCAUGUCAACGUAGUCGAGGAUAUGGGCAGCCGUGAGGCGUACUAGAAGGCGAAGAGA [Mat - Same State 1 - Mod of JL - D7] (puzzle: Same State 1) | 48.9 nM | 135 nM | 101 nM |  |  | 
16 | AGUCCACGCUGACGUGGACAAAAGCAUGUACAUGAGGAUCACCCAUGUCAUGUACAAGCUUUUUGCUCGUCUUAAAA [Mat - hsa-mir-208a - Mod of JL - D17] (Eterna round: R96, puzzle: Sensor for hsa-mir-208a) |  |  |  | 346 nM | 13.2 nM | 447 nM
17 | AGUCCACGCUGACGUGGACAAAAGCAUGUACAUGAGGAUCACCCAUGUCAUGUACAAGCUUUUUGCUCGUCUUAAAA [Mat - hsa-mir-208a - Mod of JL - D17] (puzzle: Sensor for hsa-mir-208a) | 543 nM | 14.7 nM | 1680 nM |  |  | 
18 | AGUCCACGCUGACGUGGACAAAAGCAUGUACAUGAGGAUCACCCAUGUCAUGUACAAGCUUUUUGCUCGUCUUAAUA [Mat - hsa-mir-208a - Mod of JL - D43] (puzzle: Sensor for hsa-mir-208a) | 478 nM | 14.9 nM | 549 nM |  |  | 
19 | AGUCCAGCCAGAGCUGGACAAAAGCAUGUACAUGAGGAUCACCCAUGUUCAUGUACAAGCUUUUUGCUCGUCUUAAG [Mat - hsa-mir-208a - Mod of JL - 64] (puzzle: Sensor for hsa-mir-208a) | 583 nM | 15.9 nM | 547 nM |  |  | 
20 | AGUCCAGCCUGAGCUGGACAAAAGCAUGUACAUGAGGAUCACCCAUGUCAUGUACAAGCUUAUUGCUCGUCUUAAUA [Mat - hsa-mir-208a - Mod of JL - D40] (puzzle: Sensor for hsa-mir-208a) | 226 nM | 16.7 nM | 251 nM |  |  | 
21 | AGUCCAGCCUGAGCUGGACAAAAGCAUGUACAUGAGGAUCACCCAUGUCAUGUACAAGCUUUUAGCUCGUCUUAAAA [Mat - hsa-mir-208a - Mod of JL - D14] (puzzle: Sensor for hsa-mir-208a) | 455 nM | 14.6 nM | 501 nM |  |  | 
22 | AGUCCAGCCUGAGCUGGACAAAAGCAUGUACAUGAGGAUCACCCAUGUCAUGUACAAGCUUUUUGCUCGUAUUAAAA [Mat - hsa-mir-208a - Mod of JL - D9] (puzzle: Sensor for hsa-mir-208a) | 362 nM | 15.4 nM | 574 nM |  |  | 
23 | AGUCCAGCCUGAGCUGGACAAAAGCAUGUACAUGAGGAUCACCCAUGUCAUGUACAAGCUUUUUGCUCGUCUAAAAG [Mat - hsa-mir-208a - Mod of JL - D7] (puzzle: Sensor for hsa-mir-208a) | 272 nM | 17.6 nM | 406 nM |  |  | 
24 | AGUCCAGCCUGAGCUGGACAAAAGCAUGUACAUGAGGAUCACCCAUGUCAUGUACAAGCUUUUUGCUCGUCUUAAGA [Mat - hsa-mir-208a - Mod of JL - D21] (Eterna round: R96, puzzle: Sensor for hsa-mir-208a) |  |  |  | 806 nM | 16.2 nM | 840 nM
25 | AGUCCAGCCUGAGCUGGACAAAAGCAUGUACAUGAGGAUCACCCAUGUCAUGUACAAGCUUUUUGCUCGUCUUAAGA [Mat - hsa-mir-208a - Mod of JL - D21] (puzzle: Sensor for hsa-mir-208a) | 561 nM | 16.5 nM | 933 nM |  |  | 
26 | AGUCCAGCCUGAGCUGGACAAAAGCAUGUACAUGAGGAUCACCCAUGUCAUGUACAAGCUUUUUGCUCGUCUUAUUA [Mat - hsa-mir-208a - Mod of JL - D24] (puzzle: Sensor for hsa-mir-208a) | 694 nM | 16.3 nM | 722 nM |  |  | 
27 | AGUCCAGCCUGAGCUGGACAAAAGCAUGUACAUGAGGAUCACCCAUGUUAUGUACAAGCUUUUUGCUCGUCUUAAUA [Zipper 49 - 10] (puzzle: Sensor for hsa-mir-208a) | 165 nM | 14.3 nM | 238 nM |  |  | 
